Among the data in patent US12173330B2, “Method for producing hydroxy-L-pipecolic acid” (API CORPORATION, priority 2015, dated 2024) are Km and Vmax values, retold here.

Substrate in series [1]: O=C(O)[C@@H]1CCCCN1
The experiment in a line: purified protein, by the assay type. The following applies: other: substrate: L-pipecolic acid, 20 mmol/L 2-oxoglutaric acid, 30° C.

Substrate in series [2]: O=C(O)[C@@H]1CCCN1
In words: purified protein, by the assay type. Conditions: other: substrate: L-proline, 20 mmol/L 2-oxoglutaric acid, 30° C.

B1: Sinorhizobium meliloti 1021 L-proline cis-4-hydroxylase SmPH, SEQ ID NO: 10 (Sinorhizobium meliloti 1021) (protein)
chain: MSTHFLGKVKFDEARLAEDLSTLEVAEFSSAYSDFACGKWEACVLRNRTGMQEEDIVVSHNAPALATPLSKSLPYLNELVETHFDCSAVRYTRIVRVSENACIIPHSDYLELDETFTRLHLVLDTNSGCANTEEDKIFHMGLGEIWFLDAMLPHSAACFSKTPRLHLMIDFEATAFPESFLRNVEQPVTTRDMVDPRKELTDEVIEGILGFSIIISEANYREIVSILAKLHFFYKADCRSMYDWLKEICKRRGDPALIEKTASLERFFLGHRERGEVMTY
A word on the Km: it is the substrate concentration at which the rate is half of its maximum. On to B1, for which, in series [1], the Km was determined as 0.31 mM and the Vmax was determined as 0.03 U/mg-protein. Moreover, the Km in series [2] came to 0.58 mM.

B2: Catenulispora acidiphila NBRC102108 L-proline cis-4-hydroxylase CaPH, SEQ ID NO: 6 (Catenulispora acidiphila DSM 44928) (protein)
chain: MRTQYVAALELDEGRLAKDLETSASFNYSEAYSNYLIGGPWKSAMLYSAGGDAGDGLLTDYDYRQSSDFTDYGRQMPYLQELISTSVDLSRLTFVRLARFAKSVIVPHRDFLELEEIPEDKRSAHRLHIPLATHEECFFSEDNVVYRMRAGELWYFDASRIHSVVSFAEEPRIHLIFDFADRPGAGSLVTVPGEPEGAGVPAASAVDRPQLSDAERAALARLADVLTMDTFSEIFSVLVKKHFRRDGGEHFVWDTLTALARACPDPAVLPHTQELRRYFTLERPSGSGQA
With B2, in series [2], the Km is given as 8.87 mM and the Vmax was determined as 0.02 U/mg-protein.

B3: Xenorhabdus doucetiae FRM16 L-proline cis-4-hydroxylase XdPH, SEQ ID NO: 8 (Xenorhabdus doucetiae) (protein)
chain: MMSAKLLASIELNQEQIEHDLNIVGSEILDVAYSEYACGNWGTITLWNHSGDAGDQTSREYVGQARPTELGQQLDCINQLIRNNFNISLIKSVRIFRSYNGGAIYPHIDYLEFNQGFKRVHLVLKSDRSCLNSEENTVYHMLPGEVWFVDGHSAHSAMSLSRVGKYSLVLDFDSGAKFEDLYSESHTLCVDNLEPDIIHDRQPLPTSLRDSLAHIAEHADEFNIQSILFLATRFHFSYAVSIREYFQLLDECFSRNPYKSVRERYEALKDILVRSGYTSHNVNHFNSLSGVTIG
For B3, in series [1], the Km is 0.30 mM and the Vmax is given as 1.14 U/mg-protein. Moreover, the Km in series [2] is recorded as 0.31 mM.
